Measured values from US5919635A (ZymoGenetics, Inc., priority 1995, dated 1999).

Target: T1, cloned receptor (rat glucagon receptor, pLJ4) (Rattus norvegicus, UniProt P30082)
T1 construct: pLJ4 contained an approximately 2 kb insert encoding a 485 amino acid protein; expressed in transfected cells; host or cells: BHK570
Experiment: Competition binding / Scatchard analysis with ^125 I-glucagon on membranes of pLJ4 BHK transfectants
Protocol: Membranes from the pLJ4 BHK transfectants were compared with rat liver membrane preparations for the ability to bind ^125 I-glucagon. Membranes were prepared essentially described by Rodbell et al. (J. Biol Chem. 246:1861-1871, 1971, which is incorporated by reference herein in its entirety). Two batches of liver membranes were each prepared from approximately 80 gm of liver from 12 to 16 decapitated young female rats. The livers were removed quickly and placed into an iced beaker. The livers were separated into ten-gram portions. The portions were minced with scissors, and connective tissue was removed during the mincing procedure. The portions were separately homogenized in a Dounce homogenizer. To each portion, 25 ml of Medium (Table 2) was added to the minced tissue in the homogenizer, and the tissue was homogenized in an ice bucket with eight vigorous strokes of the loose pestle. After homogenization, the homogenates were pooled into 450 ml of cold Medium (Table 2). The pooled homogenates were stirred for 3 minutes and filtered through two layers of cheesecloth followed by filtering through four layers of cheesecloth. The homogenates were then centrifuged for 30 minutes at 1500×g at 4° C. The supernatants were discarded, and the pellets were pooled into a clean Dounce homogenizer. The pellets were resuspended with three gentle strokes of the loose pestle. The resuspended pellets were decanted into a 250 ml graduate containing 62 ml of 69% Sucrose Solution (Table 2). Distilled water was added to a final volume of 110 ml, and the mixture was thoroughly mixed and kept cold. The concentration of the solution was adjusted to 44.0%+/-0.1% using 69% sucrose or water as measured by a refractometer (Bausch & Lomb, Rochester, N.Y.). […]
To each tube 100 μl of 2× binding buffer; 20 μl of ^125 I-glucagon (Amersham); 20 μl of 1 mM NaHCO3; 20 μl 10 mM HOAc, 0.5% BSA (Novo Nordisk N/A, Bagsvaerd, Denmark); and 40 μl of distilled water were added. […] The supernatants from each sample were aspirated, and the pellets were counted. […]

T1 sequence (P30082 27-485): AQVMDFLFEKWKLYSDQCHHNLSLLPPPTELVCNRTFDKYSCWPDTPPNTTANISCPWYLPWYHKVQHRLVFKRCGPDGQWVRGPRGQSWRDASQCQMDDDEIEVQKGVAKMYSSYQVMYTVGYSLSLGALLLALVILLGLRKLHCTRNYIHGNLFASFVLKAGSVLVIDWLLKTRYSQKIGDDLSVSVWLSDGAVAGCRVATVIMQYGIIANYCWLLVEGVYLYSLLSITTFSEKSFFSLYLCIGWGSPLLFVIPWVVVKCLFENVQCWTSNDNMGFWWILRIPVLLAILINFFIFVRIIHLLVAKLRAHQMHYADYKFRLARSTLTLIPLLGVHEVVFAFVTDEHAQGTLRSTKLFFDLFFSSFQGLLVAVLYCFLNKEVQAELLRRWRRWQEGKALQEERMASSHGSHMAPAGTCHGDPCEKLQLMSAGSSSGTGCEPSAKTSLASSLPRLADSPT

Question: How did the Kd (Scatchard analysis, cloned receptor, BHK transfectant membranes, 30 minutes at 30° C., read-out: apparent Kd) turn out when “glucagon: 29 amino acid hormone produced by the alpha cells of pancreatic islets; human glucagon (Sigma)” was run?
Answer: 50 nM

Question: What about the “ability to compete for ^125 I-glucagon binding” value (micromolar amounts (Table 7: 1 μM glucagon and des-His^1 [Glu^9]glucagon amide)) of the same substance?
Answer: able to compete
